Data published in patent publication US20100323957A1, “NOVEL ASSAY FOR INHIBITORS OF EGFR” (THE REGENTS OF THE UNIVERSITY OF CALIFORNIA THE OFFICE OF …, priority 2007, published 2010).

Tests used:
[1] = system: cancer cells in colon cancer; details: in vitro; cited from earlier work
[2] = system: biliary tract cancer; details: in vitro; cited from earlier work
[3] = system: gastric cancer cells; details: cited from earlier work
[4] = molecular target: T1, EGFR kinase domain attached to lipid vesicles (activated EGFR kinase) (Homo sapiens, UniProt P00533); test: Vesicle-based kinase assay: EGFR kinase domain attached to lipid vesicles; format: biochemical; details: for inhibition of activity of kinase domain attached to lipid vesicles: result in words
T1 construct: DNA encoding residues 672-998 of human EGFR was cloned into pFAST BAC HT; made in house; host or cells: Sf9 insect cells (baculovirus)
Excerpt: (§1) The wild-type and mutant forms of the EGFR kinase domain were expressed and purified using methods known in the art and described in Zhang et al., (2006). The 60-residue MIG6 peptide was expressed in bacteria as a glutathione S-transferase (GST)-fusion protein, purified and treated with the TEV protease to remove the GST-moiety. The wild-type and Y358A mutant MIG6(segments 1-2) peptides were fused to a Trp DLE leader peptide and expressed as inclusion bodies and purified as described. All other MIG6 peptides were produced using solid phase synthesis. […] The binding affinities between the kinase domain and fluorescein-labeled MIG6 peptides were measured by monitoring the change of fluorescence anisotropy during the titration and fitting the data to a single-site binding model. Kinase assays in solution and on vesicle were performed using methods known in the art and described herein. Cell-based inhibition assays were performed using Cos-7 cells co-transfected with constructs containing full-length EGFR and MIG6.

[5] = molecular target: T2, wild-type EGFR kinase domain (Homo sapiens, UniProt P00533); test: Fluorescence anisotropy binding titration, wild-type kinase domain; details: result in words
T2 construct: DNA encoding residues 672-998 of human EGFR was cloned into pFAST BAC HT; 6-His tag, linker and TEV cleavage site (N, cleaved yes); made in house; host or cells: Sf9 insect cells (baculovirus)
Excerpt: as §1
Fluorescein-labelled 30-residue wild-type, M346L, M346A, F352A and Y358A MIG6 peptides were diluted to final concentrations of 5, 8, 3.1, 3.5 and 2.7 μM in a buffer containing 10 mM Tris, 50 mM NaCl and 2 mM DTT, pH7.5. These peptides in the cuvette were then titrated with the wild-type or mutant forms of the EGFR kinase domain at 20 uC. For the competition assays, the labeled 30-mer wild-type peptide ([…]) and kinase domain ([…]) were mixed and titrated with unlabelled competitor peptides. The fluorescence anisotropy at each titration step was monitored. The I682Q and K799E mutant kinases used in the binding assays contain the N-terminal 63H is tag and linker fragment before the kinase domain, whereas this N-terminal fragment in the wild-type and V924R mutant kinases was removed by Tobacco Etch Virus protease treatment.

[6] = molecular target: T3, EGFR kinase domain V924R mutant (Homo sapiens, UniProt P00533, V948R); test: Fluorescence anisotropy binding titration, V924R mutant kinase domain; details: result in words
T3 construct: DNA encoding residues 672-998 of human EGFR was cloned into pFAST BAC HT; 6-His tag, linker and TEV cleavage site (N, cleaved yes); made in house; host or cells: Sf9 insect cells (baculovirus)
Excerpt: as §1
(§2) Fluorescein-labelled 30-residue wild-type, M346L, M346A, F352A and Y358A MIG6 peptides were diluted to final concentrations of 5, 8, 3.1, 3.5 and 2.7 μM in a buffer containing 10 mM Tris, 50 mM NaCl and 2 mM DTT, pH7.5. […] The fluorescence anisotropy at each titration step was monitored. […]

[7] = system: lung cancer; details: patients with lung cancer; cited from earlier work
[8] = molecular target: T4, EGFR kinase domain I682Q mutant (Homo sapiens, UniProt P00533, I706Q); test: Fluorescence anisotropy binding titration, I682Q mutant kinase domain; details: result in words
T4 construct: DNA encoding residues 672-998 of human EGFR was cloned into pFAST BAC HT; made in house; host or cells: Sf9 insect cells (baculovirus)
Excerpt: as §1, §2

[9] = molecular target: T5, EGFR kinase domain L834R mutant (Homo sapiens, UniProt P00533, L858R); test: Kinase assay in solution, L834R mutant kinase domain; format: biochemical; details: result in words
T5 construct: DNA encoding residues 672-998 of human EGFR was cloned into pFAST BAC HT; made in house; host or cells: Sf9 insect cells (baculovirus)
Method: To test the role of segment 2, we produced a longer peptide (residues 336-412, MIG6(segments 1-2)), and analyzed its effect on a variant of the EGFR kinase domain that contains a mutation (L834R) that renders it constitutively active in the absence of concentration on vesicles. MIG6(segments 1-2) inhibits this mutant kinase domain with an IC50 value of ˜200 nM (FIG. 25a). MIG6(segments 1-2) bearing a mutation within segment 1 (Y358A) inhibited L834R much less efficiently (IC50˜5 μM).
(§3) Kinase assays were performed using methods known in the art and described herein. The substrate peptide was kept at 1 mM in all the experiments. The reported rates are the initial velocities normalized by the kinase concentrations. The wild-type kinase concentrations in the vesicle-based and solution-based assays were […] respectively.
(§4) A continuous enzyme-coupled kinase assay was performed to measure the kinase activity of the proteins as described in Barker et al., ((1995) Biochemistry, Vol. 34(54): 14843-51), with modifications, as described herein. The ATP concentration was kept to 0.5 mM.
(§5) The buffer used contained 10 mM MgCl2, 20 mM Tris, and pH 7.5. […] The substrate peptide was derived from the region spanning Y1173 in EGFR ([…]). All proteins used in this assay contained the N-terminal (His)6 tag unless otherwise noted.

[10] = molecular target: T4, EGFR kinase domain I682Q mutant; test: Kinase assay in solution, I682Q mutant kinase domain (basal activity); format: biochemical; details: result in words
Method: The EGFR kinase domain has very low activity in solution, but is activated on increasing its local concentration by tethering it to lipid vesicles, which promotes the formation of the asymmetric dimer. […] An EGFR kinase domain bearing an I682Q mutation is not stimulated by concentration at the membrane because it is unable to form the asymmetric dimer. […] Thus, MIG6(segment 1) is only able to inhibit the kinase domain in the context of asymmetric dimer formation.
as §3, §4, §5

Which “growth of cancer cells” value [1] does the source give for COc1cc2ncnc(Nc3ccc(F)c(Cl)c3)c2cc1OCCCN1CCOCC1 [gefitinib] here?
The value was “halt the growth of cancer cells”.

And the “growth of cancer cells” value [2]?
Its value is “halt the growth of cancer cells”.

And the “apoptosis of gastric cancer cells” value [3]?
Its value is “increase apoptosis”.

Which “inhibition of activity of kinase domain attached to lipid vesicles” value [4] does the source give for “M346A: 30-residue MIG6 segment 1 peptide with M346A mutation (SPKSLPSYLNGVAPPTQSFAPDPKYVSSKA; UniProt Q9UJM3 334-363, looked up, variant M346A)” here?
The value was “do not inhibit kinase activity significantly”.

What about the “binding to the wild-type EGFR kinase domain” value [5] of the same compound?
Its value is “abrogates binding”.

What does the source list for “Y358A: 30-residue MIG6 segment 1 peptide with Y358A mutation (SPKSLPSYLNGVMPPTQSFAPDPKAVSSKA; UniProt Q9UJM3 334-363, looked up, variant Y358A)”?
inhibition of activity of kinase domain attached to lipid vesicles [4]: do not inhibit kinase activity significantly; binding to the wild-type EGFR kinase domain [5]: abrogates binding

With “F352A: 30-residue MIG6 segment 1 peptide with F352A mutation (SPKSLPSYLNGVMPPTQSAAPDPKYVSSKA; UniProt Q9UJM3 334-363, looked up, variant F352A)” as the compound, how does the “inhibition of activity of kinase domain attached to lipid vesicles” value [4] read?
Its value is “do not inhibit kinase activity significantly”.

What about the “binding to the wild-type EGFR kinase domain” value [5] of the same compound?
The value was “abrogates binding”.

With “KSLPSYLNGVMPPTQSFAPDPKYVSS (chains of the parent or of the whole protein) [40-mer peptide]” as the compound, how does the IC50 ([4]; vesicle-based kinase assay, read-out: IC50 for inhibiting the activated EGFR kinase (kinase domain attached to lipid vesicles)) read?
The IC50 was about 10 µM.

With “30-residue fluorescein-labelled MIG6 peptide: fluorescein-labelled MIG6 peptide, residues 334-363, spanning the entire binding epitope of segment 1” as the compound, how does the “binding to EGFR kinase domain bearing V924R mutation” value [6] read?
The value was “abolishes peptide binding”.

For C#Cc1cccc(Nc2ncnc3cc(OCCOC)c(OCCOC)cc23)c1 [Erlotinib], which survival times [7] is on record?
The survival times was “increases survival times by several months”.

Which “binding to the wild-type EGFR kinase domain” value [5] does the source give for “MIG6(segment 1): 25-residue epitope of MIG6 (residues 337-361) binding the EGFR kinase domain; tested as the 30-residue peptide” here?
The value was “micromolar affinity”.

What about the “binding to EGFR kinase domain bearing V924R mutation” value [6] of the same compound?
The value was “does not bind”.

And the “binding affinity for I682Q mutant kinase domain compared with wild-type” value [8]?
Its value is “same binding affinity”.

And the “inhibition of L834R mutant kinase domain” value [9]?
The value was “did not inhibit”.

What about the “inhibition of basal activity of I682Q mutant kinase domain in solution” value [10] of the same compound?
Its value is “not inhibited”.
